Data published in patent US20260078195A1.

How the values were obtained:
[1] = target: mouse BCMA expressed on HEK293A cells (mouse) (UniProt O88472); experiment: FACS on HEK293A/mouse BCMA cells, PE goat anti-human IgG (H+L) secondary antibody, MFI
[2] = target: monkey BCMA expressed on HEK293A cells (monkey); experiment: FACS on HEK293A/monkey BCMA cells, PE goat anti-human IgG (H+L) secondary antibody, MFI
[3] = target: human CD3D&E protein (Cat #: CT038-H2508H, Sino biological) (human) (UniProt P04234); experiment: SPR (BIAcore 8K), antibody captured by anti-human Fc on CM5 chip, antigen as analyte
[4] = target: human BCMA antigen (Cat #:BCA-H522y, ACRO) (human) (UniProt Q02223); experiment: as above
[5] = target: human BCMA expressed on HEK293A cells (human) (UniProt Q02223); experiment: FACS on HEK293A/human BCMA cells, PE goat anti-human IgG (H+L) secondary antibody, MFI
[6] = target: human CD3 complex on Jurkat cells (human) (UniProt P07766); experiment: FACS on Jurkat cells, PE goat anti-human IgG (H+L) secondary antibody, MFI
[7] = target: human GPRC5D antigen (Cat #:HM05P, Kactus Biosystems) (human) (UniProt Q9NZD1); experiment: SPR (BIAcore 8K), antibody captured by anti-human Fc on CM5 chip, antigen as analyte
[8] = target: human GPRC5D expressed on HEK293T cells (human) (UniProt Q9NZD1); experiment: FACS on HEK293T/human GPRC5D cells, PE goat anti-human IgG (H+L) secondary antibody, MFI
Sequence of human GPRC5D expressed on HEK293T cells (human) (Q9NZD1 whole entry): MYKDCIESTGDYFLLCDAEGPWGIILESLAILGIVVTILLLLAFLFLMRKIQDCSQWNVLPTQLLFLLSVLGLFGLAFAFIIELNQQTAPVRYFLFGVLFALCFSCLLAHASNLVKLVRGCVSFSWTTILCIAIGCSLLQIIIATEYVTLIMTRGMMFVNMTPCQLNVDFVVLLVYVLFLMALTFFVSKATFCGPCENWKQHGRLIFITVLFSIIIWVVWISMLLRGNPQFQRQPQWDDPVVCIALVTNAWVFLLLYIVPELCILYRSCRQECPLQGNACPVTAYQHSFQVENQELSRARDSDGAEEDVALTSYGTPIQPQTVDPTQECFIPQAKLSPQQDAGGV

Sequence of human BCMA antigen (Cat #:BCA-H522y, ACRO) (human) (Q02223 1-54 limits assumed): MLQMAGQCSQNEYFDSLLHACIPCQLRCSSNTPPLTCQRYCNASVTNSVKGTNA
Sequence of human CD3D&E protein (Cat #: CT038-H2508H, Sino biological) (human) (P04234 22-105, chain 1 of 2): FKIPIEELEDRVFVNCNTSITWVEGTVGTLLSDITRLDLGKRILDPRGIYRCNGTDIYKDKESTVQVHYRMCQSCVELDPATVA
Sequence of human CD3D&E protein (Cat #: CT038-H2508H, Sino biological) (human) (P07766 23-126, chain 2 of 2, further chain): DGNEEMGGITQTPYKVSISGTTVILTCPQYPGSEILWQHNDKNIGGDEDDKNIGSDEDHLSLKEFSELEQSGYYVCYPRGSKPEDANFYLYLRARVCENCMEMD
Sequence of human BCMA expressed on HEK293A cells (human) (Q02223 whole entry): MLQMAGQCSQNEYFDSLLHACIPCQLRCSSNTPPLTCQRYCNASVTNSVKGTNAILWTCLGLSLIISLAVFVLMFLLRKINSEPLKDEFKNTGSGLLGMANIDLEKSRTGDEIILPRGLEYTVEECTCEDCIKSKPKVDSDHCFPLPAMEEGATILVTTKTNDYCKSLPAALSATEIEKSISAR
Sequence of human GPRC5D antigen (Cat #:HM05P, Kactus Biosystems) (human) (Q9NZD1 whole entry): as the sequence (Q9NZD1 whole entry) above
Sequence of mouse BCMA expressed on HEK293A cells (mouse) (O88472 whole entry): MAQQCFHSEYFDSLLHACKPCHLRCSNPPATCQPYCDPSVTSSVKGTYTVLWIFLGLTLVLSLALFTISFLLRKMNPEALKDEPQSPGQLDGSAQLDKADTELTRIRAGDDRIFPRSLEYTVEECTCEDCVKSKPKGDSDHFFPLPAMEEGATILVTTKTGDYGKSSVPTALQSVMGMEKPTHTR
Sequence of monkey BCMA expressed on HEK293A cells (monkey) (Q02223 other isoform, or with tags, fused parts or gaps): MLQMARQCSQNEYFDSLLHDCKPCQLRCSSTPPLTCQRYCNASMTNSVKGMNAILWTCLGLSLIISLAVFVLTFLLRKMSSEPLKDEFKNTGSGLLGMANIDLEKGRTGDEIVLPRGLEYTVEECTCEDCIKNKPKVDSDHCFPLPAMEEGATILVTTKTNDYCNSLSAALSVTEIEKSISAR
Sequence of human CD3 complex on Jurkat cells (human) (P07766 23-207, chain 1 of 4): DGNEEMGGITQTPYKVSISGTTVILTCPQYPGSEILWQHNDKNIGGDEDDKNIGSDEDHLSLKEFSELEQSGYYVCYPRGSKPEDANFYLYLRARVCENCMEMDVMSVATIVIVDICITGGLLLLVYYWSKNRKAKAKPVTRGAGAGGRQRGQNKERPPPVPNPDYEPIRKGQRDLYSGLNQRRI
Sequence of human CD3 complex on Jurkat cells (human) (P04234 22-171, chain 2 of 4, further chain): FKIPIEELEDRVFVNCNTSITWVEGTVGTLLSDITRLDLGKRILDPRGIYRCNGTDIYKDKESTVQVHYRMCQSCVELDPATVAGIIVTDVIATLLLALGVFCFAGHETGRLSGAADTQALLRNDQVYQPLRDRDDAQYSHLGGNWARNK
Sequence of human CD3 complex on Jurkat cells (human) (P09693 23-182, chain 3 of 4, further chain): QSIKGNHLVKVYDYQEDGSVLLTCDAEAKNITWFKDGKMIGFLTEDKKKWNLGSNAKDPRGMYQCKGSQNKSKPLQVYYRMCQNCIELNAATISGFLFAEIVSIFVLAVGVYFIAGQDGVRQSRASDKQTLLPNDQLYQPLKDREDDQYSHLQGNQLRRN
Sequence of human CD3 complex on Jurkat cells (human) (P20963 22-164, chain 4 of 4, further chain): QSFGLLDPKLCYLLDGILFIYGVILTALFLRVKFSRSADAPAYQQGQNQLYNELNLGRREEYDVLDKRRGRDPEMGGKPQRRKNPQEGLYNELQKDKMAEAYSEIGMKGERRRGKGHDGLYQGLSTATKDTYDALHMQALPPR

| EC50 (read off the curve) [1] [µg/mL] | EC50 (read off the curve) [2] [µg/mL] | Kd [3] [nM] | koff [3] [s⁻¹] | kon [3] [M⁻¹ s⁻¹] | Kd [4] [nM] | koff [4] [s⁻¹] | kon [4] [M⁻¹ s⁻¹] | EC50 (read off the curve) [5] [µg/mL] | EC50 (read off the curve) [6] [µg/mL] | Kd [7] [nM] | EC50 (read off the curve) [8] [µg/mL] | Substance |
| --- | --- | --- | --- | --- | --- | --- | --- | --- | --- | --- | --- | --- |
| 0.2 | 0.1 | 41 | 0.00757 | 185000 | 0.996 | 0.00227 | 2.28e+06 | 0.07 | 0.7 | – | – | EM801 (bi-specific BCMA×CD3 antibody) (bispecific antibody) |
| – | – | – | – | – | – | – | – | – | – | 4.21 | 0.1 | JNJ-64407564 (bi-specific GPRC5D×CD3 antibody) (bispecific antibody) |
